The results in this text go back to patent US20110189095A1, “CRKL TARGETING PEPTIDES” (The Board of Regents, of the University of Texas System, priority 2008, published 2011).

This experiment deals with DU145 cells. The experiment is described as follows: Cell proliferation assay (WST-1). The format is cell-based, human. The following applies: protein added exogenously 48 hours after siRNA transfection. The text has this:
In contrast, CRKL was not detected in control cell media as shown by immunoprecipitation either with anti-CRKL or with several control antibodies. […] Next, studies were undertaken to determine whether the CRKL secretion had any detectable effect(s) on cell proliferation and migration. […] As an additional control, it was shown that the decrease in cell proliferation could be rescued by exogenous CRKL (FIG. 8D) and only background levels of apoptosis (less than 1%) were detected in the CRKL siRNA knockdown cells or in serum-free medium cultured cells.
CRKL (mRNA accession # NM_005207), β1 integrin (mRNA accession # NM_002211), and control siRNAs were purchased (Santa Cruz, Ambion and Dharmacon). siRNA oligonucleotides sequences and corresponding manufacturers are summarized in (Table 3). Oligofectamine (Invitrogen) or DharmaFect (Dharmacon) were used to transfect siRNAs into DU145 cells (1-2×10^5 cells per well). The transfected cells were incubated for 48-72 hours prior to processing. […] Transfected cells were harvested and lysed in the presence of protease inhibitors. The tumor-homing phage binding activity was also examined in the CRKL knockdown cells. For rescue experiments, up to 1.5 μg of recombinant CRKL was exogenously added to CRKL siRNA transfected cells. […]
(Tetrazolium dyes change colour on reduction, which living cells bring about.)

B1: exogenous CRKL: recombinant His-tag CRKL protein added exogenously (protein)
chain: MSSARFDSSDRSAWYMGPVSRQEAQTRLQGQRHGMFLVRDSSTCPGDYVLSVSENSRVSHYIINSLPNRRFKIGDQEFDHLPALLEFYKIHYLDTTTLIEPAPRYPSPPMGSVSAPNLPTAEDNLEYVRTLYDFPGNDAEDLPFKKGEILVIIEKPEEQWWSARNKDGRVGMIPVPYVEKLVRSSPHGKHGNRNSNSYGIPEPAHAYAQPQTTTPLPAVSGSPGAAITPLPSTQNGPVFAKAIQKRVPCAYDKTALALEVGDIVKVTRMNINGQWEGEVNGRKGLFPFTHVKIFDPQNPDENE
For the molecule B1, the “rescue of decrease in cell proliferation in CRKL siRNA knockdown cells” value was “rescued”.
